# Data reported in patent US20180073027, “CD117 Ligand-Drug Conjugates For Targeted Cancer Therapy” (THE METHODIST HOSPITAL SYSTEM, published 2018).
# Biological target: CD117 (KIT, c-Kit) (UniProt P10721 P10721:26-976)
# Experiment: flow; HEL cells, room temperature 30 min; no binding to CD117-negative CA46, U937, MDA-MB-468, LNCaP cells
# Conditions: tags: endogenous on HEL AML cell line (ATCC) or primary AML marrow cells; label: 5'-Cy3; G4
# CD117 (KIT, c-Kit), sequence (P10721 26-976, one chain of several): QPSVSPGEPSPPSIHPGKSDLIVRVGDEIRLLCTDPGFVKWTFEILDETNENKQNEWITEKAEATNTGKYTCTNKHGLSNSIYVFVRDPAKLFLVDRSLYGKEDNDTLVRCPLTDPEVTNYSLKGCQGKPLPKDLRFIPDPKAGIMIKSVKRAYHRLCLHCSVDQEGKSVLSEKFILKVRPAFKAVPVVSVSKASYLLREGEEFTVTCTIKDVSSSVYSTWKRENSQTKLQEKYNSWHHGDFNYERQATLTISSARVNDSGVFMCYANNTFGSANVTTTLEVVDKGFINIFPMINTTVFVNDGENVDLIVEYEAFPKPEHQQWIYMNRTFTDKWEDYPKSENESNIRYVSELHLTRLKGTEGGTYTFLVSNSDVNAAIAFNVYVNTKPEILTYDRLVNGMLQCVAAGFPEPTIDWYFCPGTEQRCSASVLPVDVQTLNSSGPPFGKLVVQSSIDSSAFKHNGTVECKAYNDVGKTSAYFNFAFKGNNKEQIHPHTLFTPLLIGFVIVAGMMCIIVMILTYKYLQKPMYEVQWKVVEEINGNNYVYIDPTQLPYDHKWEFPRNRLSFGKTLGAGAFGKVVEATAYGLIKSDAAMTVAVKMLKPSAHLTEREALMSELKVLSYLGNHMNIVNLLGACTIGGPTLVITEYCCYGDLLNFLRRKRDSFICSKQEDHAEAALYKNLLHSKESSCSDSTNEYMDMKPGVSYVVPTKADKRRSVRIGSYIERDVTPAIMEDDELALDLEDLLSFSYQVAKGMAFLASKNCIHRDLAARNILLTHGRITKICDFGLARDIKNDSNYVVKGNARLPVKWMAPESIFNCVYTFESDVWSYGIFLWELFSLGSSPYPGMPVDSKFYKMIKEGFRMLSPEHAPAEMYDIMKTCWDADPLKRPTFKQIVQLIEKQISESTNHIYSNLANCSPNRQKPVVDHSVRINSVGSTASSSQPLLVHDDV
binder,measurement,value
CD117 aptamer #1F (full length) (ssDNA) DNA: GAGGCATACCAGCTTATTCAAGGGGCCGGGGCAAGGGGGGGGTACCGTGGTAGGACATAGTAAGTGCAATCTGCGAA,Kd,6.3 nM
